The values that follow come from PMC8254828.

The target of this assay is 3XHA-ankyrin-G F1609R (UniProt G5E8K5).
Chain of UniProt G5E8K5 (G5E8K5 whole entry F1609R): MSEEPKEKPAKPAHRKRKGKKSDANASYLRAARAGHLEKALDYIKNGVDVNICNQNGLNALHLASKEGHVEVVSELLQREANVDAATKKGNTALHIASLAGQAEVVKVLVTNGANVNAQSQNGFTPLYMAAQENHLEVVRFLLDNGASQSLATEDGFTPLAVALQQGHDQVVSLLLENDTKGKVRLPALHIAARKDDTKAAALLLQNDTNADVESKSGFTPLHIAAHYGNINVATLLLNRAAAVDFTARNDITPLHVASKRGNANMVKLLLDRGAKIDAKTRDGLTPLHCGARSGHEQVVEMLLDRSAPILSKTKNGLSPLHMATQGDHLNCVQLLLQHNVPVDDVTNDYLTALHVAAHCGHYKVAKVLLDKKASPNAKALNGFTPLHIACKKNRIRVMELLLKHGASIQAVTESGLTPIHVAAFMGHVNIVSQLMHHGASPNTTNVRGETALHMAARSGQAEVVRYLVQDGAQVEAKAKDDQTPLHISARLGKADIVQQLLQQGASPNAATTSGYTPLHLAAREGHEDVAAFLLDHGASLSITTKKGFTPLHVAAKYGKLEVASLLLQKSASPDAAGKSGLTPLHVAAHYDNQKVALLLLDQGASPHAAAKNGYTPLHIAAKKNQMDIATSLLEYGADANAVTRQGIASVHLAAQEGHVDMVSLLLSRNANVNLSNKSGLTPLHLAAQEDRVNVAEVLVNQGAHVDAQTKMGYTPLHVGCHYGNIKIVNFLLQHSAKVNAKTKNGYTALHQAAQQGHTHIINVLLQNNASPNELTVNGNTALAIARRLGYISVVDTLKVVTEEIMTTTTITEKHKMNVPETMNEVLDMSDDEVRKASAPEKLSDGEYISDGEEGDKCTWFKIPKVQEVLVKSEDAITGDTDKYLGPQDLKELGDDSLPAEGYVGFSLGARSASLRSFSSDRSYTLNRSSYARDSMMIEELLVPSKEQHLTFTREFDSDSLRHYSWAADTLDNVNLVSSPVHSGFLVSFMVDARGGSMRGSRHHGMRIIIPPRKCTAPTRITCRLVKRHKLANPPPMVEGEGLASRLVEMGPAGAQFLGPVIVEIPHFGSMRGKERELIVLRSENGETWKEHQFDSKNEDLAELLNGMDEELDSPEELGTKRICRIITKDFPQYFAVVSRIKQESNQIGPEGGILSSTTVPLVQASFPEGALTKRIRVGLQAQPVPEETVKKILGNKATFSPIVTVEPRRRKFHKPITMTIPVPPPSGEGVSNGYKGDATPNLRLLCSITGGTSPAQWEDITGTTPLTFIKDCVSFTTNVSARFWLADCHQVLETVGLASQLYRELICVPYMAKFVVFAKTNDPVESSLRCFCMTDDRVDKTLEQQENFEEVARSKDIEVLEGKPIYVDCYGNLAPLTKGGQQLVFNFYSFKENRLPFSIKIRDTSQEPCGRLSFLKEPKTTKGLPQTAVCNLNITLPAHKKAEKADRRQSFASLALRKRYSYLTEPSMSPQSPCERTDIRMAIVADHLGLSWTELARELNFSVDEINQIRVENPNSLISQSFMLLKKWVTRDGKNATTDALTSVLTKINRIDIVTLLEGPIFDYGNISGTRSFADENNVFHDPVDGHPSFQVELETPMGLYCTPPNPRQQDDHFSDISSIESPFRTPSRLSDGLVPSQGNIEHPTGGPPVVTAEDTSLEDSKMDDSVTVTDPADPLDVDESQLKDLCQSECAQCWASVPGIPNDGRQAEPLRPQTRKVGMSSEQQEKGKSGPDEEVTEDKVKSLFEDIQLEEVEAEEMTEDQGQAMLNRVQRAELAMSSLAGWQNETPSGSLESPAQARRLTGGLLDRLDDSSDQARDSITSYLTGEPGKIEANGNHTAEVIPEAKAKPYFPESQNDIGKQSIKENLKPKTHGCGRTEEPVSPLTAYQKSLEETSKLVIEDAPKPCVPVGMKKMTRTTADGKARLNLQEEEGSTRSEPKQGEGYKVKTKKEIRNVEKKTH

Consider “Homer1b/c, endogenous (from UniProt Q9Z2Y3 1-366) (natural protein)”, for which the FRAP in dendritic spines of primary cortical neurons: mobile fraction of GFP-ankyrin-G^F1609R against GFP-ankyrin-G^WT, 200 s after photobleaching (GFP-tagged forms of the constructs) turned out to be 22.4%.
